One test addresses T1, RAGE (Homo sapiens, UniProt Q15109).
T1 construct: RAGE-AT1R—CHO cells expressing both full length RAGE and AT1R; expressed in transfected cells
As to the kind of experiment: Ang II-induced pro-inflammatory gene expression in human aortic endothelial cells (HAEC). The class given is cell-based. Particulars: HAECs; 1 μM, 30 minutes before Ang II; FIG. 13G. As to the method: To confirm the applicability of inhibition strategies to human tissues, additional experiments were undertaken in primary aortic endothelial cells from humans (Lonza). HAECs were grown in EGM-2 media. […]

A further test deals with T2, CCR1 (Homo sapiens, UniProt P32246).
T2 construct: expressed in transfected cells; host or cells: HEK293FT, transient
In words: Receptor-HIT BRET, β-arr2/Venus with RAGE/Rluc8 and CCR1. Format: cell-based. The note with it: in the presence of CCR1. An excerpt:
(§1) Bioluminescence Resonance Energy Transfer (BRET)
(§2) BRET is an established technology for studying protein-protein proximity in live cells, particularly involving GPCRs (Pfleger and Eidne, 2006). One protein of interest was linked to a bioluminescent donor enzyme, Rluc8, a variant of Renilla luciferase, and a second linked to an acceptor fluorophore, Venus, a variant of green fluorescent protein. If in close proximity (<10 nm), energy resulting from the rapid oxidation of a cell-permeable coelenterazine substrate by the donor can transfer to the acceptor, which in turn fluoresces at a longer characteristic wavelength.
(§3) Plasmids were transiently co-expressed in human embryonic kidney (HEK) 293FT cells and BRET measurements taken at 37° C. using a POLARstar Omega or LUMIstar plate reader (BMG Labtech, Mornington, Victoria, Australia) with 460-490 nm (‘donor emission’) and 520-550 nm (‘acceptor emission’) filters, or a VICTOR Light plate reader (Perkin Elmer, Glen Waverley, Victoria, Australia) with 400-475 nm (‘donor emission’) and 520-540 nm (‘acceptor emission’) filters, or a CLARIOstar plate reader (BMG Labtech, Mornington, Victoria, Australia) with 420-480 nm (‘donor emission’) and 520-620 nm (‘acceptor emission’) filters. […]
(§4) For BRET kinetic assays, the final pre-treatment reading is presented at the zero time point (time of ligand/vehicle addition). […]

The target in another test is T3, CCR7 (Homo sapiens, UniProt P32248).
T3 construct: expressed in transfected cells; host or cells: HEK293FT, transient
In words: Receptor-HIT BRET, β-arr2/Venus with RAGE/Rluc8 and CCR7. The class given is cell-based. Particulars: in the presence of CCR7.
Excerpt: as §1, §2, §3, §4

In the next test the target is T4, CCR6 (Homo sapiens, UniProt P51684).
T4 construct: expressed in transfected cells; host or cells: HEK293FT, transient
As to the kind of experiment: Receptor-HIT BRET, β-arr2/Venus with RAGE/Rluc8 and CCR6. Format: cell-based. Particulars: in the presence of CCR6.
Excerpt: as §1, §2, §3, §4

The test system of test [1] is RAGE ligand-dependent signalling. The note with it: Putranto et al., 2013; cited from earlier work.
In the next test the target is TIRAP (Homo sapiens, UniProt P58753). The note with it: Putranto et al., 2013; cited from earlier work.
The next test concerns U-87MG cells. The note with it: Putranto et al., 2013; cited from earlier work.
For the next test, the target named is T5, CXCR2 and RAGE (Homo sapiens, UniProt P25025+Q15109).
T5 construct: expressed in transfected cells; host or cells: HEK293FT
As to the kind of experiment: Ligand-induced BRET, Rluc8-tagged GPCR and RAGE/Venus. The class given is cell-based. Particulars: mCherry-RAGE338-361 co-expressed, FIG. 21F.

In another test the target is T6, CCR7 and RAGE (Homo sapiens, UniProt P32248+Q15109).
T6 construct: expressed in transfected cells; host or cells: HEK293FT
The description is as above. Format: cell-based. Particulars: mCherry-RAGE338-361 co-expressed, FIG. 21F.

Test [2] deals with T7, vasopressin receptor 1A (V1aR) and RAGE (Homo sapiens, UniProt P37288+Q15109).
T7 construct: expressed in transfected cells; host or cells: HEK293FT
The description is as above. Format: cell-based. The note with it: mCherry-RAGE338-361 co-expressed, FIG. 21F.

For the next test, the target named is T8, CCR9 and RAGE (Homo sapiens, UniProt P51686+Q15109).
T8 construct: expressed in transfected cells; host or cells: HEK293FT
The description is as above. Format: cell-based. The note with it: mCherry-RAGE338-361 co-expressed, FIG. 21F.

Another test has as its target T9, CXCR5 and RAGE (Homo sapiens, UniProt P32302+Q15109).
T9 construct: expressed in transfected cells; host or cells: HEK293FT
Described as above. The class given is cell-based. The note with it: mCherry-RAGE338-361 co-expressed, FIG. 21F.

The target of test [3] is T10, vasopressin receptor 2 (V2R) and RAGE (Homo sapiens, UniProt P30518+Q15109).
T10 construct: expressed in transfected cells; host or cells: HEK293FT
The test is described as above. The class given is cell-based. The note with it: mCherry-RAGE338-361 co-expressed, FIG. 21F.

Test [4] addresses T11, vasopressin receptor 1B (V1bR) and RAGE (Homo sapiens, UniProt P47901+Q15109).
T11 construct: expressed in transfected cells; host or cells: HEK293FT
The test is described as above. The class given is cell-based. The note with it: mCherry-RAGE338-361 co-expressed, FIG. 21F.

Another test concerns the target T12, CCR1 and RAGE (Homo sapiens, UniProt P32246+Q15109).
T12 construct: expressed in transfected cells; host or cells: HEK293FT
Described as above. Format: cell-based. Particulars: mCherry-RAGE338-361 co-expressed, FIG. 21F.

A further test concerns the target T13, CCR2 and RAGE (Homo sapiens, UniProt P41597+Q15109).
T13 construct: expressed in transfected cells; host or cells: HEK293FT
The description is as above. The class given is cell-based. The note with it: mCherry-RAGE338-361 co-expressed, FIG. 21F.

A further test addresses T14, CCR4 and RAGE (Homo sapiens, UniProt P51679+Q15109).
T14 construct: expressed in transfected cells; host or cells: HEK293FT
The description is as above. Format: cell-based. Particulars: mCherry-RAGE338-361 co-expressed, FIG. 21F.

Test [5] deals with T15, adenosine A1 receptor (ADORA1) and RAGE (Homo sapiens, UniProt P30542+Q15109).
T15 construct: expressed in transfected cells; host or cells: HEK293FT
The test is described as above. Format: cell-based. Particulars: mCherry-RAGE338-361 co-expressed, FIG. 21F.

Test [6] addresses T16, sphingosine 1-phosphate receptor 1 (S1PR1) and RAGE (Homo sapiens, UniProt P21453+Q15109).
T16 construct: expressed in transfected cells; host or cells: HEK293FT
The test is described as above. The class given is cell-based. The note with it: mCherry-RAGE338-361 co-expressed, FIG. 21F.

Test [7] addresses T17, orexin receptor 2 and RAGE (Homo sapiens, UniProt O43614+Q15109).
T17 construct: expressed in transfected cells; host or cells: HEK293FT
The description is as above. Format: cell-based. Particulars: mCherry-RAGE338-361 co-expressed, FIG. 21F.

The target of a further test is T18, AT1 (Homo sapiens, UniProt P30556).
T18 sequence (P30556 1-359): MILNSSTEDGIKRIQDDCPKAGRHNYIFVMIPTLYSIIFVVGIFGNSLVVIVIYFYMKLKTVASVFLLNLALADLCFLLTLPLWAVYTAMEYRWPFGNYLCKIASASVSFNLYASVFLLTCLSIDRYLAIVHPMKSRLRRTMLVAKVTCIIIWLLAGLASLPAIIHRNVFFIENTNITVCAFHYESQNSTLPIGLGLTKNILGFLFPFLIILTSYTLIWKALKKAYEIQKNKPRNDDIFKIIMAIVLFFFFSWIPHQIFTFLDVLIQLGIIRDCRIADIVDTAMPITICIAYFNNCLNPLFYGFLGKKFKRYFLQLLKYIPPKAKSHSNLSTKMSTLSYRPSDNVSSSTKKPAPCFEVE
As to the kind of experiment: BRET between mCherry-RAGE338-361 and Nluc-AT1. Format: cell-based. Also on record: expressed in transfected cells; host or cells: HEK293FT, transient. Particulars: FIG. 21A.

The target of a further test is T19, CXCR4 and RAGE (Homo sapiens, UniProt P61073+Q15109).
T19 construct: expressed in transfected cells; host or cells: HEK293FT
In words: Ligand-induced BRET, Rluc8-tagged GPCR and RAGE/Venus. Format: cell-based. The note with it: mCherry-RAGE338-361 co-expressed, FIG. 21F.

Test [8] deals with thyrotropin-releasing hormone receptor 1 (TRHR1) and RAGE. The description is as above. Format: cell-based. Particulars: mCherry-RAGE338-361 co-expressed, FIG. 21F.
Test [9] addresses T20, neuropeptide Y1 receptor (NPY1R) and RAGE (Homo sapiens, UniProt P25929+Q15109).
T20 construct: expressed in transfected cells; host or cells: HEK293FT
Described as above. The class given is cell-based. The note with it: mCherry-RAGE338-361 co-expressed, FIG. 21F.

The next test concerns the target T21, CCR5 and RAGE (Homo sapiens, UniProt P51681+Q15109).
T21 construct: expressed in transfected cells; host or cells: HEK293FT
The description is as above. Format: cell-based. Particulars: mCherry-RAGE338-361 co-expressed, FIG. 21F.

The target of test [10] is T22, bradykinin receptor 2 (B2R) and RAGE (Homo sapiens, UniProt P30411+Q15109).
T22 construct: expressed in transfected cells; host or cells: HEK293FT
The description is as above. The class given is cell-based. The note with it: mCherry-RAGE338-361 co-expressed, FIG. 21F.

In another test the target is T23, AT1R and RAGE (Homo sapiens, UniProt P30556+Q15109).
T23 construct: expressed in transfected cells; host or cells: HEK293FT
As to the kind of experiment: BRET between AT1R/Rluc8 and RAGE/Venus in HEK293FT cells. The class given is cell-based.

A further test has as its target T24, CCR6 and RAGE (Homo sapiens, UniProt P51684+Q15109).
T24 construct: expressed in transfected cells; host or cells: HEK293FT
In words: Ligand-induced BRET, Rluc8-tagged GPCR and RAGE/Venus. Format: cell-based. Particulars: mCherry-RAGE338-361 co-expressed, FIG. 21F.

In test [11] the target is T25, adrenergic α2B receptor and RAGE (Homo sapiens, UniProt P18089+Q15109).
T25 construct: expressed in transfected cells; host or cells: HEK293FT
The description is as above. The note with it: mCherry-RAGE338-361 co-expressed, FIG. 21F. The class given is cell-based.

Ends that are not written are not given here.

T23 sequence (Q15109 23-404, one chain of several): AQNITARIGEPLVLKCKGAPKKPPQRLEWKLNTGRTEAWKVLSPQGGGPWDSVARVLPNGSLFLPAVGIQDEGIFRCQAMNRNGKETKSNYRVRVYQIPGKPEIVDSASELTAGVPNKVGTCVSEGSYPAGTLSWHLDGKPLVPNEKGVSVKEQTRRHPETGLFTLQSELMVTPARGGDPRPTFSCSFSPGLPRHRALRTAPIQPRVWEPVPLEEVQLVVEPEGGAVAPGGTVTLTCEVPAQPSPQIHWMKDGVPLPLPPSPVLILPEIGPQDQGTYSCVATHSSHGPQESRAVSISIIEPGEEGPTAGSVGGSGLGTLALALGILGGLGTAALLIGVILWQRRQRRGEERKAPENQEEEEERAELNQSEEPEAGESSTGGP
T17 sequence (O43614 whole entry): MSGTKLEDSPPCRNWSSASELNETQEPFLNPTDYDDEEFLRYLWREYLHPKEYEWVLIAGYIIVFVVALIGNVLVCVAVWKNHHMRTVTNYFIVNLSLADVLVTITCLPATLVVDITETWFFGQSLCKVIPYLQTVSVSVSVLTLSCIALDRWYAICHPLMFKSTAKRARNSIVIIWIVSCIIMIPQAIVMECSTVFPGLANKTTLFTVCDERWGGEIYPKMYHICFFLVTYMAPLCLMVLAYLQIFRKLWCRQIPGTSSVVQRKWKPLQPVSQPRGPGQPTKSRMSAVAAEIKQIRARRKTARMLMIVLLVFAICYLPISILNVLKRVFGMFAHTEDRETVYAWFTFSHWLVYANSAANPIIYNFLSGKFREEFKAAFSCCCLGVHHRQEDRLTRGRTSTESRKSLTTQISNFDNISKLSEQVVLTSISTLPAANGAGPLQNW
T17 sequence (Q15109 23-404): as the sequence (Q15109 23-404, one chain of several) above
T4 sequence (P51684 whole entry): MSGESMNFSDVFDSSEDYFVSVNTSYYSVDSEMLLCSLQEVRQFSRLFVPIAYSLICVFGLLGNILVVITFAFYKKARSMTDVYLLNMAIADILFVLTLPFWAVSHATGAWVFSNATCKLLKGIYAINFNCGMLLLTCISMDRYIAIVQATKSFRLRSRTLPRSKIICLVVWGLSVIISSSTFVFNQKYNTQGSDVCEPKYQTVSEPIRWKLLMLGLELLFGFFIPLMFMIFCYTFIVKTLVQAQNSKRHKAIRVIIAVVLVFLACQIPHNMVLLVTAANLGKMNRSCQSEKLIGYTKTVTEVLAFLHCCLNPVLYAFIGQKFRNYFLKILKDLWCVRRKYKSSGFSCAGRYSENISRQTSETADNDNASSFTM
T4 sequence (P32121 whole entry partner): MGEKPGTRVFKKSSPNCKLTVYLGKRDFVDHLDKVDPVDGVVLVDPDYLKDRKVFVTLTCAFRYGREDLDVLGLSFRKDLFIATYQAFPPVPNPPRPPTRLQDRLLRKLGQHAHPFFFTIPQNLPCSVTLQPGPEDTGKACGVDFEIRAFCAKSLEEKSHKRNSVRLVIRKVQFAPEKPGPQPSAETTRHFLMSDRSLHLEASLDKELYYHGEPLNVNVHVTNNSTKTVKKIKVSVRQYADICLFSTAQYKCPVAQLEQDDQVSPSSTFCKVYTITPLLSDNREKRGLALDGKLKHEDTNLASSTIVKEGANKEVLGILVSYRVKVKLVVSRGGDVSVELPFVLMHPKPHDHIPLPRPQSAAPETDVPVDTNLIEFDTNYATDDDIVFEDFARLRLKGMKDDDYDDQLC
T24 sequence (P51684 whole entry): as the sequence (P51684 whole entry) above
T24 sequence (Q15109 23-404): as the sequence (Q15109 23-404, one chain of several) above
Chain of TIRAP (P58753 whole entry, species assumed): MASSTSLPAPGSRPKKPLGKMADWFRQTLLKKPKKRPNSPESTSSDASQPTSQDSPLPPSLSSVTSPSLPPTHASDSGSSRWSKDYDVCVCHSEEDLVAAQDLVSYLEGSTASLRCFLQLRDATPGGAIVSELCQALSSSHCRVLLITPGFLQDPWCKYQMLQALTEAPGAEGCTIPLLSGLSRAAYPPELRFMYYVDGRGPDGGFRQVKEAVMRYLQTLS
T8 sequence (P51686 whole entry): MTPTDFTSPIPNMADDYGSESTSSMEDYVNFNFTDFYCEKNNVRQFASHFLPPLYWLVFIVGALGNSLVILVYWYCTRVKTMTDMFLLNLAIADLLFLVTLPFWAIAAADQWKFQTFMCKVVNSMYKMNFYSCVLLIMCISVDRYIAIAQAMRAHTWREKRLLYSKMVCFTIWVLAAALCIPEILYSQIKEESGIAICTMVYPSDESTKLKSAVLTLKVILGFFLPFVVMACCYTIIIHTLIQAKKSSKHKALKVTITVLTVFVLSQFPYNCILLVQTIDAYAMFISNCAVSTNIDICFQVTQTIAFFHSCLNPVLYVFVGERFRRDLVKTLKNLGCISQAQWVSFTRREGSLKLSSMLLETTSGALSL
T8 sequence (Q15109 23-404): as the sequence (Q15109 23-404, one chain of several) above
T11 sequence (P47901 whole entry): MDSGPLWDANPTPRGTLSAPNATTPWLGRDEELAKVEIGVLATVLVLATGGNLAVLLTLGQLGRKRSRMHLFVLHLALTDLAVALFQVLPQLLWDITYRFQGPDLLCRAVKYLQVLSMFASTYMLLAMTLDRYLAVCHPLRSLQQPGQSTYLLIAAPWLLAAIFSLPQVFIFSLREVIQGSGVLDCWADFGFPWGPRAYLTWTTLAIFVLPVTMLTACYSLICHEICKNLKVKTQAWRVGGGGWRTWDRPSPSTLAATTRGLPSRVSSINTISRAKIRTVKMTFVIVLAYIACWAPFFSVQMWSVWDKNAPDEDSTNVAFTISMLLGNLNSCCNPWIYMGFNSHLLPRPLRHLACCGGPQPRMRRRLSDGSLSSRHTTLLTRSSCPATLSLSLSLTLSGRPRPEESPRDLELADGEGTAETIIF
T11 sequence (Q15109 23-404): as the sequence (Q15109 23-404, one chain of several) above
T16 sequence (P21453 whole entry): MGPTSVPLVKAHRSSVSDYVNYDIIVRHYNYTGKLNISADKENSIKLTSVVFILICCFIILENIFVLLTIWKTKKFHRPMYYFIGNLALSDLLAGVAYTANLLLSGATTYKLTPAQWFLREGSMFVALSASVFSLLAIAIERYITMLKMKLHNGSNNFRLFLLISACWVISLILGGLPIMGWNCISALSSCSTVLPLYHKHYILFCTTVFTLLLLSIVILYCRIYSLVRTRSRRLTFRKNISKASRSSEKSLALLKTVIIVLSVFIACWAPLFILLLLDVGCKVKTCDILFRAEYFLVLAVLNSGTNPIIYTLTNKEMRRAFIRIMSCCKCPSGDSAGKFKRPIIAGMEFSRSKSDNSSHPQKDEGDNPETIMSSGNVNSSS
T16 sequence (Q15109 23-404): as the sequence (Q15109 23-404, one chain of several) above
T5 sequence (P25025 whole entry): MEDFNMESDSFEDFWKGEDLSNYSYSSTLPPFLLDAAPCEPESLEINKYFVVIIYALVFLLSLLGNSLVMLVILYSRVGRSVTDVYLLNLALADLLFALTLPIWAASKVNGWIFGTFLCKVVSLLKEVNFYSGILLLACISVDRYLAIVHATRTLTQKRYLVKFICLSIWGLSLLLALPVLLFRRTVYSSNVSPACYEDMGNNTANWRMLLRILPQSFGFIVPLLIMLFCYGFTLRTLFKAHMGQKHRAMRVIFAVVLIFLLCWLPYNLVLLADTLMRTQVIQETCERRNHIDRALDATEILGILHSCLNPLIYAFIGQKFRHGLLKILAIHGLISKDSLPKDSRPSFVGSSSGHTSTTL
T5 sequence (Q15109 23-404): as the sequence (Q15109 23-404, one chain of several) above
T6 sequence (P32248 25-378): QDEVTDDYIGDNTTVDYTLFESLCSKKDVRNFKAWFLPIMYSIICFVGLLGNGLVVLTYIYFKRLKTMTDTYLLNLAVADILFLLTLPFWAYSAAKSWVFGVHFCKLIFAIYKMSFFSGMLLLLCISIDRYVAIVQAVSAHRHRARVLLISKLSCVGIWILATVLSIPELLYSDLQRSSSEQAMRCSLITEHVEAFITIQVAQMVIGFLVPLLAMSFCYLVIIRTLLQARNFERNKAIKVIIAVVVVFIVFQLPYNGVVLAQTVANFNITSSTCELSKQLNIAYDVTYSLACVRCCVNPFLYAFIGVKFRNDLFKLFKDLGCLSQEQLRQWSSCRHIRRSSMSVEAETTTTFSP
T6 sequence (Q15109 23-404): as the sequence (Q15109 23-404, one chain of several) above
T3 sequence (P32248 25-378): as the sequence (P32248 25-378) above
T3 sequence (P32121 whole entry partner): as the sequence (P32121 whole entry partner) above
T25 sequence (P18089 whole entry): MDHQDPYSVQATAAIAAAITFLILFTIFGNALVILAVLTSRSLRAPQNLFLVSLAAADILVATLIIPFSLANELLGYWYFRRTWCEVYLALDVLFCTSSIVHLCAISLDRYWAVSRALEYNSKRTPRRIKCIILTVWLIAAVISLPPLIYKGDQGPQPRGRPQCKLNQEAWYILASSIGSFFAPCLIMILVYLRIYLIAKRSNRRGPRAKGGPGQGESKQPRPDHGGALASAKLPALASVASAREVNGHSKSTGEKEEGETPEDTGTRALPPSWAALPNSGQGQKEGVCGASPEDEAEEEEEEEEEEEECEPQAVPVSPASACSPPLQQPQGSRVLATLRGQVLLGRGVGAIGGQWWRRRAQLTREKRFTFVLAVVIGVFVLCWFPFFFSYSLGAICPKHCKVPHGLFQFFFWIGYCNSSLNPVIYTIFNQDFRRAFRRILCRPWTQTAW
T25 sequence (Q15109 23-404): as the sequence (Q15109 23-404, one chain of several) above
T1 sequence (Q15109 23-404): as the sequence (Q15109 23-404, one chain of several) above

With `CCCCC1=NC2(CCCC2)C(=O)N1Cc1ccc(-c2ccccc2-c2nnn[nH]2)cc1` [irbesartan], at RAGE, the “Ang II-induced induction of pro-inflammatory genes” value is recorded as “inhibitory effect”.

For the molecule “CCL3: chemokine ligand used to activate CCR1”, the “recruitment of β-arr2/Venus proximal to RAGE/Rluc8” value (shortened to “recruitment … to RAGE/Rluc8”) with CCR1 was “recruitment”.

In the case of “CCL19: chemokine ligand used to activate CCR7”, the “recruitment … to RAGE/Rluc8” value with CCR7 was “recruitment”.

Regarding “CCL20: chemokine ligand used to activate CCR6”, in the test with CCR6, the “recruitment … to RAGE/Rluc8” value is listed as “recruitment”.

Regarding “S391A-RAGE387-395: fragment of RAGE cytosolic tail of Putranto et al., 2013 (ELNQAEEPE; cytosolic tail peptide; UniProt Q15109 387-395, looked up, variant S391A)”, the “attenuation of apoptosis induced by RAGE ligand S100B” value in test [1] is recorded as “did not attenuate”. The “binding to TIRAP” value with TIRAP is listed as “did not show any appreciable binding”.

For “S391E-RAGE387-395: fragment of RAGE cytosolic tail of Putranto et al., 2013, mimicking the phosphorylated state of RAGE (ELNQEEEPE; cytosolic tail peptide; UniProt Q15109 387-395, looked up, variant S391E)”, the “growth of U-87MG cells (intracellular adenosine triphosphate content)” value in the test on U-87MG cells is recorded as “not significantly affected”. Besides, the “inhibition of particular aspects of RAGE ligand-dependent signalling (apoptosis, cell migration and invasion)” value in test [1] is given as “inhibitor”.

For the molecule “mCherry-RAGE338-361: the RAGE TMD with an extracellular juxta-membrane fragment linked to mCherry (LGTLALALGILGGLGTAALLIGVI; also: linked to mCherry)”, the “inhibition of the change in the ligand-induced BRET signal between the Rluc8-tagged GPCR and RAGE/Venus” value in the test with CXCR2 and RAGE is “particularly clear inhibition”; with CCR7 and RAGE, “small yet discernible inhibition”; in [2] it was “particularly clear inhibition”; with CCR9 and RAGE, “particularly clear inhibition”; in the test with CXCR5 and RAGE it was “small yet discernible inhibition”; in test [3] it was “particularly clear inhibition”. Besides, the “inhibition of the change in the ligand-induced BRET signal between the Rluc8-tagged GPCR and RAGE/Venus” value in test [4] was “particularly clear inhibition”; with CCR1 and RAGE, “particularly clear inhibition”; with CCR2 and RAGE it was “particularly clear inhibition”; with CCR4 and RAGE it was “particularly clear inhibition”; in [5], “small yet discernible inhibition”; in test [6], “particularly clear inhibition”. For the same molecule, the “inhibition of the change in the ligand-induced BRET signal between the Rluc8-tagged GPCR and RAGE/Venus” value is reported as “particularly clear inhibition” in test [7]; “particularly clear inhibition” in the test with CXCR4 and RAGE; “particularly clear inhibition” in test [8]; “particularly clear inhibition” in [9]; “particularly clear inhibition” with CCR5 and RAGE; “particularly clear inhibition” in [10]. For the same molecule, the “inhibition of the change in the ligand-induced BRET signal between the Rluc8-tagged GPCR and RAGE/Venus” value in the test with AT1R and RAGE (angiotensin receptor AT1 (AT1R), mCherry-RAGE338-361 co-expressed, FIG. 21F) was “particularly clear inhibition”; with CCR6 and RAGE, “particularly clear inhibition”; in test [11] it was “particularly clear inhibition”. Also, in the test with AT1, the “BRET signal with extracellularly luciferase-tagged AT1 receptor (Nluc-AT1)” value is “BRET signal is observed”. Besides, in the test with AT1R and RAGE (overexpression of mCherry-RAGE338-361, FIG. 21B, 21C), the “BRET between full length RAGE and AT1 (saturation and kinetic assays)” value was “modulates BRET between full length RAGE and AT1 in a dose dependent fashion”.
